Test results as given in patent publication US20230227527A1 (published 2023).

T1: EBV LMP2 peptide on HLA-A*02:01 (human)
T1 peptide: CLGGLLTMV

T2: peptide on HLA-A*02:01 (human)
T2 peptide: SLGGLLTMV


Assays:
[1] = molecular target: T1, EBV LMP2 peptide on HLA-A*02:01; experiment: intracellular IFN-gamma; peptide titration on APCs, E:T 1:1, overnight; FIG. 6F; full-length, on cells
peptide on HLA-A*02:01 [2] = molecular target: T2, peptide on HLA-A*02:01; experiment: as above
[3] = molecular target: T1, EBV LMP2 peptide on HLA-A*02:01; experiment: intracellular IFN-gamma; peptide titration on APCs, E:T 1:1, overnight; a different experiment, FIG. 6G; full-length, on cells
peptide on HLA-A*02:01 [4] = molecular target: T2, peptide on HLA-A*02:01; experiment: as above
[5] = molecular target: EBV LMP2 peptide on HLA-A11 (human); experiment: intracellular IFN-gamma; peptide titration on K562-A11, E:T 1:1, overnight; FIG. 9; full-length, on cells; conditions: chains Valpha:Vbeta

Row | Binder | EC50 of peptide [1] | EC50 of peptide (peptide on HLA-A*02:01 [2]) | EC50 of peptide [3] | EC50 of peptide (peptide on HLA-A*02:01 [4]) | EC50 of peptide [5]
1 | L208 (TCR, V domains shown) Valpha: KQEVTQIPAALSVPEGENLVLNCSFTDSAIYNLQWFRQDPGKGLTSLLLIQSSQREQTSGRLNASLDKSSGRSTLYIAASQPGDSATYLCAVLMDSNYQLIWGAGTKLIIKP Vbeta: DAGITQSPRYKITETGRQVTLMCHQTWSHSYMFWYRQDLGHGLRLIYYSAAADITDKGEVPDGYVVSRSKTENFPLTLESATRSQTSVYFCASSEDGMNTEAFFGQGTRLTVV | 0.0392 µg/mL | 0.0183 µg/mL | 0.261 µg/mL | 0.125 µg/mL | 
2 | L11-3 (protein) chain 1: GQQVMQIPQYQHVQEGEDFTTYCNSSTTLSNIQWYKQRPGGHPVFLIQLVKSGEVKKQKRLTFQFGEAKKNSSLHITATQTTDVGTYFCADPDGLIFGQGTELSVKP chain 2: DAGVIQSPRHEVTEMGQEVTLRCKPISGHNSLFWYRQTMMRGLELLIYFNNNVPIDDSGMPEDRFSAKMPNASFSTLKIQPSEPRDSAVYFCASSLGAGAGYGYTFGSGTRLTVV |  |  |  |  | 0.3 nM
3 | L11-6 (protein) chain 1: GIQVEQSPPDLILQEGANSTLRCNFSDSVNNLQWFHQNPWGQLINLFYIPSGTKQNGRLSATTVATERYSLLYISSSQTTDSGVYFCAVDGGNKLVFGAGTILRVKS chain 2: DAGVIQSPRHEVTEMGQEVTLRCKPISGHNSLFWYRQTMMRGLELLIYFNNNVPIDDSGMPEDRFSAKMPNASFSTLKIQPSEPRDSAVYFCASSLGAGSGWEQYFGPGTRLTVT |  |  |  |  | 2 nM
